# Assay results reported in patent US20110091994A1, “Methods for Screening Compounds for Treating and/or Preventing an Hepatitis C Virus Infection” (priority 2008, published 2011).
# Like-named read-outs stand apart in the source and are kept apart here.
# B1: SLIT2 (protein, UniProt O94813 31-1529, looked up)
# Slit homolog 2 protein: QCSCSGSTVDCHGLALRSVPRNIPRNTERLDLNGNNITRITKTDFAGLRHLRVLQLMENKISTIERGAFQDLKELERLRLNRNHLQLFPELLFLGTAKLYRLDLSENQIQAIPRKAFRGAVDIKNLQLDYNQISCIEDGAFRALRDLEVLTLNNNNITRLSVASFNHMPKLRTFRLHSNNLYCDCHLAWLSDWLRQRPRVGLYTQCMGPSHLRGHNVAEVQKREFVCSGHQSFMAPSCSVLHCPAACTCSNNIVDCRGKGLTEIPTNLPETITEIRLEQNTIKVIPPGAFSPYKKLRRIDLSNNQISELAPDAFQGLRSLNSLVLYGNKITELPKSLFEGLFSLQLLLLNANKINCLRVDAFQDLHNLNLLSLYDNKLQTIAKGTFSPLRAIQTMHLAQNPFICDCHLKWLADYLHTNPIETSGARCTSPRRLANKRIGQIKSKKFRCSAKEQYFIPGTEDYRSKLSGDCFADLACPEKCRCEGTTVDCSNQKLNKIPEHIPQYTAELRLNNNEFTVLEATGIFKKLPQLRKINFSNNKITDIEEGAFEGASGVNEILLTSNRLENVQHKMFKGLESLKTLMLRSNRITCVGNDSFIGLSSVRLLSLYDNQITTVAPGAFDTLHSLSTLNLLANPFNCNCYLAWLGEWLRKKRIVTGNPRCQKPYFLKEIPIQDVAIQDFTCDDGNDDNSCSPLSRCPTECTCLDTVVRCSNKGLKVLPKGIPRDVTELYLDGNQFTLVPKELSNYKHLTLIDLSNNRISTLSNQSFSNMTQLLTLILSYNRLRCIPPRTFDGLKSLRLLSLHGNDISVVPEGAFNDLSALSHLAIGANPLYCDCNMQWLSDWVKSEYKEPGIARCAGPGEMADKLLLTTPSKKFTCQGPVDVNILAKCNPCLSNPCKNDGTCNSDPVDFYRCTCPYGFKGQDCDVPIHACISNPCKHGGTCHLKEGEEDGFWCICADGFEGENCEVNVDDCEDNDCENNSTCVDGINNYTCLCPPEYTGELCEEKLDFCAQDLNPCQHDSKCILTPKGFKCDCTPGYVGEHCDIDFDDCQDNKCKNGAHCTDAVNGYTCICPEGYSGLFCEFSPPMVLPRTSPCDNFDCQNGAQCIVRINEPICQCLPGYQGEKCEKLVSVNFINKESYLQIPSAKVRPQTNITLQIATDEDSGILLYKGDKDHIAVELYRGRVRASYDTGSHPASAIYSVETINDGNFHIVELLALDQSLSLSVDGGNPKIITNLSKQSTLNFDSPLYVGGMPGKSNVASLRQAPGQNGTSFHGCIRNLYINSELQDFQKVPMQTGILPGCEPCHKKVCAHGTCQPSSQAGFTCECQEGWMGPLCDQRTNDPCLGNKCVHGTCLPINAFSYSCKCLEGHGGVLCDEEEDLFNPCQAIKCKHGKCRLSGLGQPYCECSSGYTGDSCDREISCRGERIRDYYQKQQGYAACQTTKKVSRLECRGGCAGGQCCGPLRSKRRKYSFECTDGSSFVDEVEKVVKCGCTRCVS
# B2: SIAH1 (protein, UniProt Q8IUQ4 1-282, looked up)
# E3 ubiquitin-protein ligase …: MSRQTATALPTGTSKCPPSQRVPALTGTTASNNDLASLFECPVCFDYVLPPILQCQSGHLVCSNCRPKLTCCPTCRGPLGSIRNLAMEKVANSVLFPCKYASSGCEITLPHTEKADHEELCEFRPYSCPCPGASCKWQGSLDAVMPHLMHQHKSITTLQGEDIVFLATDINLPGAVDWVMMQSCFGFHFMLVLEKQEKYDGHQQFFAIVQLIGTRKQAENFAYRLELNGHRRRLTWEATPRSIHEGIATAIMNSDCLVFDTSIAQLFAENGNLGINVTISMC
# B3: SF3B2 (protein, UniProt Q13435 1-895, looked up)
# Splicing factor 3B subunit 2: MATEHPEPPKAELQLPPPPPPGHYGAWAAQELQAKLAEIGAPIQGNREELVERLQSYTRQTGIVLNRPVLRGEDGDKAAPPPMSAQLPGIPMPPPPLGLPPLQPPPPPPPPPPGLGLGFPMAHPPNLGPPPPLRVGEPVALSEEERLKLAQQQAALLMQQEERAKQQGDHSLKEHELLEQQKRAAVLLEQERQQEIAKMGTPVPRPPQDMGQIGVRTPLGPRVAAPVGPVGPTPTVLPMGAPVPRPRGPPPPPGDENREMDDPSVGPKIPQALEKILQLKESRQEEMNSQQEEEEMETDARSSLGQSASETEEDTVSVSKKEKNRKRRNRKKKKKPQRVRGVSSESSGDREKDSTRSRGSDSPAADVEIEYVTEEPEIYEPNFIFFKRIFEAFKLTDDVKKEKEKEPEKLDKLENSAAPKKKGFEEEHKDSDDDSSDDEQEKKPEAPKLSKKKLRRMNRFTVAELKQLVARPDVVEMHDVTAQDPKLLVHLKATRNSVPVPRHWCFKRKYLQGKRGIEKPPFELPDFIKRTGIQEMREALQEKEEQKTMKSKMREKVRPKMGKIDIDYQKLHDAFFKWQTKPKLTIHGDLYYEGKEFETRLKEKKPGDLSDELRISLGMPVGPNAHKVPPPWLIAMQRYGPPPSYPNLKIPGLNSPIPESCSFGYHAGGWGKPPVDETGKPLYGDVFGTNAAEFQTKTEEEEIDRTPWGELEPSDEESSEEEEEEESDEDKPDETGFITPADSGLITPGGFSSVPAGMETPELIELRKKKIEEAMDGSETPQLFTVLPEKRTATVGGAMMGSTHIYDMSTVMSRKGPAPELQGVEVALAPEELELDPMAMTQKYEEHVREQQAQVEKEDFSDMVAEHAAKQKQKKRKAQPQDSRGGSKKYKEFKF
# B4: PAK4 (protein, UniProt O96013 1-591, looked up)
# Serine/threonine-protein …: MFGKRKKRVEISAPSNFEHRVHTGFDQHEQKFTGLPRQWQSLIEESARRPKPLVDPACITSIQPGAPKTIVRGSKGAKDGALTLLLDEFENMSVTRSNSLRRDSPPPPARARQENGMPEEPATTARGGPGKAGSRGRFAGHSEAGGGSGDRRRAGPEKRPKSSREGSGGPQESSRDKRPLSGPDVGTPQPAGLASGAKLAAGRPFNTYPRADTDHPSRGAQGEPHDVAPNGPSAGGLAIPQSSSSSSRPPTRARGAPSPGVLGPHASEPQLAPPACTPAAPAVPGPPGPRSPQREPQRVSHEQFRAALQLVVDPGDPRSYLDNFIKIGEGSTGIVCIATVRSSGKLVAVKKMDLRKQQRRELLFNEVVIMRDYQHENVVEMYNSYLVGDELWVVMEFLEGGALTDIVTHTRMNEEQIAAVCLAVLQALSVLHAQGVIHRDIKSDSILLTHDGRVKLSDFGFCAQVSKEVPRRKSLVGTPYWMAPELISRLPYGPEVDIWSLGIMVIEMVDGEPPYFNEPPLKAMKMIRDNLPPRLKNLHKVSPSLKGFLDRLLVRDPAQRATAAELLKHPFLAKAGPPASIVPLMRQNRTR
# B5: SNX4 (protein, UniProt O95219 1-450, looked up)
# Sorting nexin-4: MEQAPPDPERQLQPAPLEPLGSPDAGLGAAVGKEAEGAGEESSGVDTMTHNNFWLKKIEISVSEAEKRTGRNAMNMQETYTAYLIETRSVEHTDGQSVLTDSLWRRYSEFELLRSYLLVYYPHIVVPPLPEKRAEFVWHKLSADNMDPDFVERRRIGLENFLLRIASHPILCRDKIFYLFLTQEGNWKETVNETGFQLKADSRLKALNATFRVKNPDKRFTDLKHYSDELQSVISHLLRVRARVADRLYGVYKVHGNYGRVFSEWSAIEKEMGDGLQSAGHHMDVYASSIDDILEDEEHYADQLKEYLFYAEALRAVCRKHELMQYDLEMAAQDLASKKQQCEELVTGTVRTFSLKGMTTKLFGQETPEQREARIKVLEEQINEGEQQLKSKNLEGREFVKNAWADIERFKEQKNRDLKEALISYAVMQISMCKKGIQVWTNAKECFSKM
# B6: SLIT3 (protein, UniProt O75094 34-1523, looked up)
# Slit homolog 3 protein: CPTKCTCSAASVDCHGLGLRAVPRGIPRNAERLDLDRNNITRITKMDFAGLKNLRVLHLEDNQVSVIERGAFQDLKQLERLRLNKNKLQVLPELLFQSTPKLTRLDLSENQIQGIPRKAFRGITDVKNLQLDNNHISCIEDGAFRALRDLEILTLNNNNISRILVTSFNHMPKIRTLRLHSNHLYCDCHLAWLSDWLRQRRTVGQFTLCMAPVHLRGFNVADVQKKEYVCPAPHSEPPSCNANSISCPSPCTCSNNIVDCRGKGLMEIPANLPEGIVEIRLEQNSIKAIPAGAFTQYKKLKRIDISKNQISDIAPDAFQGLKSLTSLVLYGNKITEIVKGLFDGLVSLQLLLLNANKINCLRVNTFQDLQNLNLLSLYDNKLQTISKGLFAPLQSIQTLHLAQNPFVCDCHLKWLADYLQDNPIETSGARCSSPRRLANKRISQIKSKKFRCSGSEDYRSRFSSECFMDLVCPEKCRCEGTIVDCSNQKLVRIPSHLPEYVTDLRLNDNEVSVLEATGIFKKLPNLRKINLSNNKIKEVREGAFDGAASVQELMLTGNQLETVHGRVFRGLSGLKTLMLRSNLIGCVSNDTFAGLSSVRLLSLYDNRITTITPGAFTTLVSLSTINLLSNPFNCNCHLAWLGKWLRKRRIVSGNPRCQKPFFLKEIPIQDVAIQDFTCDGNEESSCQLSPRCPEQCTCMETVVRCSNKGLRALPRGMPKDVTELYLEGNHLTAVPRELSALRHLTLIDLSNNSISMLTNYTFSNMSHLSTLILSYNRLRCIPVHAFNGLRSLRVLTLHGNDISSVPEGSFNDLTSLSHLALGTNPLHCDCSLRWLSEWVKAGYKEPGIARCSSPEPMADRLLLTTPTHRFQCKGPVDINIVAKCNACLSSPCKNNGTCTQDPVELYRCACPYSYKGKDCTVPINTCIQNPCQHGGTCHLSDSHKDGFSCSCPLGFEGQRCEINPDDCEDNDCENNATCVDGINNYVCICPPNYTGELCDEVIDHCVPELNLCQHEAKCIPLDKGFSCECVPGYSGKLCETDNDDCVAHKCRHGAQCVDTINGYTCTCPQGFSGPFCEHPPPMVLLQTSPCDQYECQNGAQCIVVQQEPTCRCPPGFAGPRCEKLITVNFVGKDSYVELASAKVRPQANISLQVATDKDNGILLYKGDNDPLALELYQGHVRLVYDSLSSPPTTVYSVETVNDGQFHSVELVTLNQTLNLVVDKGTPKSLGKLQKQPAVGINSPLYLGGIPTSTGLSALRQGTDRPLGGFHGCIHEVRINNELQDFKALPPQSLGVSPGCKSCTVCKHGLCRSVEKDSVVCECRPGWTGPLCDQEARDPCLGHRCHHGKCVATGTSYMCKCAEGYGGDLCDNKNDSANACSAFKCHHGQCHISDQGEPYCLCQPGFSGEHCQQENPCLGQVVREVIRRQKGYASCATASKVPIMECRGGCGPQCCQPTRSKRRKYVFQCTDGSSFVEEVERHLECGCLACS
# How the values were obtained:
# [1] = target: T1, HCV ORFs (Gal4-DB fusions) (Hepatitis C virus genotype 1b, UniProt Q9WMX2); type: binding, HCV genotype 1b, isolate con1; conditions: human protein as prey
# T1 construct: expressed in transfected cells; host or cells: Saccharomyces cerevisiae MAV203 (IMAP1) / AH109 (IMAP2)
# [2] = tested on: HCV ORFs (Gal4-DB fusions); type: binding, HCV genotype 1b, isolate con1; conditions: human protein listed by gene symbol; the value names the HCV protein it interacts with
# HCV proteins = target: T2, HCV proteins (Hepatitis C virus genotype 1b, UniProt Q9WMX2); assay: Validation by Y2H pairwise matrices; type: binding;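 also: yeast two-hybrid pairwise tests of interactions first found in Y2H screens of HCV bait proteins against human cDNA libraries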
# T2 construct: expressed in transfected cells
# [3] = validation of interaction with HCV protein NS3
# 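For IMAP Y2H IMAP1 (number of IST) in this document: yeast two-hybrid screens using HCV genotype 1b proteins fused to Gal4-DB as baits against prey cDNA libraries from human spleen and foetal brain, IMAP1 via transformation and IMAP2 via mating.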
# 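For Interaction with viral protein in this document: yeast two-hybrid screens using HCV genotype 1b proteins fused to Gal4-DB as baits against prey cDNA libraries from human spleen and foetal brain, IMAP1 via transformation and IMAP2 via mating.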
Molecule,IMAP Y2H IMAP1 (number of IST) ([1]; HCV protein NS3 as bait),IMAP Y2H IMAP1 (number of IST) ([1]; HCV protein p7 as bait),Interaction with viral protein [2],Y2H matrices (HCV proteins; interaction with HCV protein p7),Y2H matrices (HCV proteins; [3]),IMAP Y2H IMAP1 (number of IST) ([1]; HCV protein CORE as bait),Y2H matrices (HCV proteins; validation of interaction with HCV protein CORE)
B1,5,1,NS3,+,+,,
B2,1,,NS3,,+,,
B3,1,,NS3,,+,,
B4,,,CORE,,,1,+
B5,1,,NS3,,+,,
B6,4,,NS3,,+,,
